From US20210037856A1, “Ruminant Feed Composition Comprising A Muramidase” (Novozymes A/S, priority 2018, published 2021)

B1: N: mature muramidase polypeptide from Ovatospora brasiliensis, GH25; N in Example 4 (protein, listed as Ovatospora brasiliensis)
chain: FDISNWQPAGTVDFAAAYSSGARFVIIKATEGTSYIDPSFSSHYTKATNAGFIRGGYHFAHPGETTGAAEADYFIAHGGGWSNDGITLPGMLDLESENKGQCWGLSTSAMVSWIKSFSDRYKSRTGVYPLIYTNPSWWSACTGNSNAFVNTNPLVLARYASAPGTIPGGWPYQTIWQNSDSYAYGGDSDIFNGSLDRLKALAKGS
B2: S: mature muramidase polypeptide from Aspergffius sp., novel MUR polypeptide; S in Example 4 (protein, listed as Aspergillus sp.)
chain: YPVKADVHCRSGPGTSYSIVKTYSTGTQISVSCQAAGTDVDGDQLWDKTSDGCYVSDYYVSTGSSNYVTSHCPTEYAIKTDVNCRSGPGTNYGIVKTYNQGVMVSLNCQASGTDVDGDSLWDKTSDGCYVSDYYVATGSSSYVTSACSGSSSSGGGGSSSSGNLPSLDSTQSAHARAIIGEAKSQNVGRQGCLAGIATALVESSMLMYANSNVAASLSYPHDAVGSDYDSVGLFQQRVSIYTNLAADMDAAQSAGQFFDEMKKVSGWETMNVGDLCQEVQRSAYPDRYAGEVSTAESICSAGGL
B3: T: mature muramidase polypeptide from Chaetomium sp., novel MUR polypeptide; T in Example 4 (protein)
chain: YHIKGSIVNCRAGPGTSHAVKKTYAKGQNVQISCQTTGNIIHGNNIWDLTQDGCYVADYYVKTGTDGFVTDKCSSSGNSGVSGTSTSSVGGAAGPMKDDYPYKSNCEGTDPWLYFKCQCTSFVAWRINERLGIKFHNQYKGVNWGDANTWDDAAKRTGVTVNKTPKPGCVAQTDKGTWGHVAWVAAVGDETVTIEEYNYGGKERYGTRTVPKGEFDYIHVKN
modifications: Chaetomium sp
B4: U: mature muramidase polypeptide from Zopfiella Sp., novel MUR polypeptide; U in Example 4 (protein)
chain: YPIKGDTVNCRSGPGTSFAVKKTYAKGKDIKITCQTTGTSVNGNNIWDKTSDGCYVADYYVKTGKDGFVTDKCDASSVPKPPATKIPGPVTNDYPYKSSCGGVDPWNYYKCQCTSFVAWRVNKRLGKKFHNRYKGHAWGNANQWDEAAKQSGVKVNSTPKPGCIAQTNAGSYGHVAWVTAVGKDTVTIEEYNWNKKLGYGTRTVAKSKFNYIHLEP
modifications: Zopfiella sp
B5: V: mature muramidase polypeptide from Acremonium exiguum, novel MUR polypeptide; V in Example 4 (protein, listed as Acremonium exiguum)
chain: RSIPIVARAYPGLDDVQSRNAEAALGEIRAEGINPARQACLAVISTALQESELYIYANPAVPESMNYPHDREGGDQDSVGMFQQRPEWYPDIAADMSASGSTRQFLAAMLQVPGWQTMEVSALDQEVQKAEAGNLYGQRIPLATQVCDAAGF
B6: W: mature muramidase polypeptide from Chaetomium sp., novel MUR polypeptide; W in Example 4 (protein)
chain: YPITGDPLNCRSGPGTSYAIKKSYTKGADIKISCQTEGTSVNGNSIWDKTQDGCYVADFYVKTGVDGYVTKKCSGGGGDTGGGSGGIPGPVKDDYPYKSSCGGVDPWNYYKCQCTSFVAWRINKRLGIKFHNQYKGTNWGNANTWDNAAKKTGVKVNSTPKPGAIAQSNAGNYGHVAWVTAVNGNKVTIEEYNWGKREGYGKRTVDKSAFNYIHVKA
modifications: Chaetomium sp
B7: Y: mature muramidase polypeptide from Ovatospora brasiliensis, novel MUR polypeptide; Y in Example 4 (protein, listed as Ovatospora brasiliensis)
chain: YPVKADSLNCRSGPGTSYKVVKTYKKGADIKISCQTEGPSVNGDNLWIKTQDGCYVADYYVKTGTNGYVAKKCSSGGSTGGGSGGGKGNLPGLNAKQSSHARAIVAQAKKDGVGLHGCEAGIATALVESGIKVYANKKVPASLKYPHDAVGSDHDSIGIFQQRAVYYPNIAADMDPARSAHQFFAKMKGVSGWKTMAVGKLCQKVQVSAYPDRYAKRVSEATKICKAAGI
B8: Z: mature muramidase polypeptide from Penicillium wellingtonense, novel MUR polypeptide; Z in Example 4 (protein)
chain: YPITGDVVNCRSGPGTTYDVVKSYKLNADVSITCQAPGTDVKGDSVWDKTADGCYVADYYVKTGSSSYVTTKCGGDDDGGDNDGGSSGNLPGLTSTQSKHAKDIIAEAKSEDLGRQGCLAGIATAIVESNILIYANSGVPESLKYPHDAVGSDHDSVGIFQQRAMFYKDIAADMDAGKSAGQFFGKMKAVSGWKSMDVGTLCQKVQGSAYPSRYAEQVSKAEKICKAGGL
modifications: Penicillium wellingtonense

Tested on: rumen fluid
Assay: in vitro ruminal fermentation, 22 muramidases, 12 h (Example 4)
Set-up: species or system cow; DMd: unit not given here
Conditions: muramidase 0.20 mg/40 ml; for Acetate / Butyrate / Propionate: VFA production after 12 h; for DMd: dry matter digestibility after 12 h of ruminal fermentation in vitro; for Total VFA: sum of VFA after 12 h; for Carbon in VFA: summed carbon in VFA after 12 h
Description: The trial was performed by Alimetrics (Alimetrics Ltd, Koskelontie 19B, FIN-02920 Espoo, Finland) using 120 mL serum bottles as fermentation vessels. The fermentation preparation and procedure is presented in Kettunen et al., (Kettunen H., J. Vuorenmaa, D. Gaffney and J. Apajalahti (2016): Yeast hydrolysate product enhances ruminal fermentation in vitro. J. App. Anim. Nutr., Vol. 4; e1; page 1 of 7). In short, the method is as follows: All bottles were initially filled with 1 g of feed DM composed from corn silage, barley meal, soybean meal, at the amounts of 0.5, 0.4, and 0.1 g DM, respectively. Subsequently, the bottles were flushed with CO2 passed through a hot copper catalyst for O2 scavenging and sealed with thick butyl rubber stopper. Anaerobic, reduced and temperature adjusted (+38° C.) artificial saliva buffer solution (Modified from Agriculture Handbook No. 379, (USDA, Washington, D.C., 1975), volume of 37.65 ml), freshly strained rumen fluid (5% inoculum; volume of 2 ml), and test compounds (volume of 0.35 ml) was introduced into the fermentation vessels under the oxygen-free CO2 flow. Following rumen fluid was collected from a ruminal cannulated cow. Rumen fluid was pumped directly from the rumen into a preheated thermos and immediately closed, and transported to Alimetrics laboratory. The rumen fluid was used for inoculation within 2 hours of harvest. To ensure that both liquid and particle associated ruminal microbes were present in the inoculum both fractions were obtained. Liquid and solid fractions were strained through a metal mesh (grid size 3×3 mm) under anaerobic conditions prior to buffer dilution.
Following inoculation with rumen fluid, buffer and test solution, the vessels were sealed with the butyl rubber septum's. All fermentation vessels were inoculated in random order to prevent the possible block effects. Inoculation time for each fermentation vessel was registered and was taken into account op on each sampling to ensure that duration of the fermentation was the same for each sample. The fermentation was continued for 12 h in a gyratory shaker at +38° C. Fermentation gas produced was measured and relived by collection of the fermentation gas in syringes at time 3, 6, 9, and 12 h. Feed residues were measured after 12 h fermentation.
The trial design was a dosage response, complete randomized design with 27 treatments using 145 fermentation vessels according to table 5. […] Negative control was supplemented with the same buffer solution that was used for diluting the enzymes to reach the same liquid volume as the supplemented fermentation vessels. The ionophore Monensin (Monensin sodium salt, 90-95% TLC (Sigma Aldrich; Product code: M5273-1G)) was chosen as a positive control because it is a ruminants feed additive that affects volatile fatty acids (VFA) production.
Liquid Samples Obtained at 12 h were Analyzed for the Concentration of VFA (Acetate, Propionate, butyrate, and valerate) by GC-FID using a glass column packed with 80/120 carbopack B-DA/4% Carbowax stationary and helium as a carrier gas (Kettunen H., J. Vuorenmaa, T. Rinttilä, H. Grönberg, E. Valkonen and J. Apajalahti (2015): Natural resin acid-enriched composition as a modulator of intestinal microbiota and performance enhancer in broiler chicken. J. App. Anim. Nutr., Vol. 3; e2; page 1 of 9).
Digestibility of dry matter was quantified by determination of dry matter in the original feed matrix and in all fermentation vessels after 12 h of fermentation. Feed residues from the fermentation vessels were obtained by filtration tared sintered glass filters, washed with water and dried at 105° C. for 12 hours. Finally, the glass filters are weighed for the residual feed dry matter.
Dry matter digestibility (DMd) was calculated at the ratio between feed residues after end fermentation and the dry matter fed. […]

| Molecule | Acetate [mmol/L] | Butyrate [mmol/L] | Propionate [mmol/L] | DMd | Total VFA [mmol/L] | Carbon in VFA [mmol/L] |
| --- | --- | --- | --- | --- | --- | --- |
| B1 | 49.3 | 7.2 | 40.8 | 0.59 | 98 | 253 |
| B2 | 49.4 | 7.1 | 41.2 | 0.58 | 98 | 254 |
| B3 | 53.6 | 7.8 | 45.1 | 0.57 | 107 | 277 |
| B4 | 49.1 | 7.1 | 40.5 | 0.60 | 97 | 251 |
| B5 | 49.2 | 7.1 | 40.6 | 0.59 | 97 | 252 |
| B6 | 48.9 | 6.7 | 40.9 | 0.59 | 97 | 250 |
| B7 | 50.8 | 6.1 | 43.1 | 0.57 | 100 | 258 |
| B8 | 48.7 | 6.9 | 39.6 | 0.56 | 96 | 247 |
